This note sets out measurements from patent US20240409635A1 (VIBRANT PHARMA, published 2024).

The target in assay [1] is epidermal growth factor receptor (EGFR) on human tumor cells (human, UniProt P00533 25-1210). The experiment in a line: cell-based or functional assay.
Assay [2] has as its target T1, recombinant human CD3ε/δ protein (ACRO systems, CDD-H52W1) (human, UniProt P07766 23-126; P04234 22-105).
T1 construct: Bought reagent
The experiment in a line: BLI, antibody captured on AHC sensor. Here is the method: (§1) Antibodies were first captured onto an anti-human IgG Fc coated AHC biosensor (Anti-hIgG Fc, Sartorius, 18-5060). Antibodies were diluted to 5 μg/mL and 1.5 nm protein was coupled to the AHC sensor surface in 0.02% PBST.
(§2) After the sensor captures the antibodies, it is used to bind and dissociate with different concentrations of analytes to obtain the KD value of the interaction. The experimental parameters are as follows: Baseline1: 60 s, Loading: 240 s, Baseline2: 180 s, Association: 240 s, Dissociation: 600 s, High sensitivity kinetics: 2 Hz. Kinetic constants were derived based on the rate equation for 1:1 Langmuir binding to obtain equilibrium dissociation constants (KD). The Data Analysis HT 12 software (Sartorius, 50-5029) was used to simultaneously fit binding and dissociation curves to calculate Kₒₙ, and Koff. The affinity KD was calculated based on the below formula: KD=Koff/Kₒₙ.
On the technique in general: Biolayer interferometry detects binding as a change in optical thickness at a sensor tip.

The target in assay [3] is T2, recombinant human EGFR protein (ACRO systems, EGR-H5222) (human, UniProt P00533 25-645).
T2 construct: Bought reagent
The experiment in a line: BLI, antibody captured on AHC sensor. As for the experimental part: as §1, §2

Assay [4] addresses T3, keyhole limpet haemocyanin.
T3 construct: Bought reagent, coated at 5 ug/mL; also called KLH
The experiment in a line: ELISA, KLH coated, 100 nM antibody. Here is the method: (§3) The experimental steps are as follows [0420] […] (4) 50 μl anti-human IgG-HRP conjugate (Sigma, AP113P, 1:8000 dilution) was added to each well; the plate was incubated for 1 h at room temperature and washed 6 times with 0.05% PBST; [0424] (5) 50 μl of TMB chromogenic solution (Biopanda, TMB-S-001) was added to each well and incubated at room temperature for 10-15 minutes for color development; [0425] (6) 50 μl of 1M HCl was added to each well to stop the color development, and the absorbance at 450 nm was measured using a microplate reader (Biotek, SYNERGY LX); Data analysis: If the ratio between the absorbance of the antibody and the absorbance of the blank control PBS is ≥3, there is too much non-specific binding.

For assay [5], the target named is T4, Insulin.
T4 construct: Bought reagent, coated at 5 ug/mL
Put plainly: ELISA, insulin coated, 100 nM antibody. Here is the method: as §3

Assay [6] concerns the target T5, recombinant human c-Met protein (human, UniProt P08581 25-932).
T5 construct: Bought
The experiment in a line: BLI, antibody on AHC sensor. As for the experimental part:
as §1
as §2, with “Kₒₙ” for “Kₒₙ,”

The target in assay [7] is T6, recombinant human CD3ε/δ protein (human, UniProt P07766 23-126; P04234 22-105).
T6 construct: Bought heterodimer
T6 sequence (P07766 23-126, stated change not applied, chain 1 of 2): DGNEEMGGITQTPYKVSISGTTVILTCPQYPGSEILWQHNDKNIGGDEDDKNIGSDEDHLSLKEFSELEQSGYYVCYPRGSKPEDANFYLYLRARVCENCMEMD
T6 sequence (P04234 22-105, stated change not applied, chain 2 of 2): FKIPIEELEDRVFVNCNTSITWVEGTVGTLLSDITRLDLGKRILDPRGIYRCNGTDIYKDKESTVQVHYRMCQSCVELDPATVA
Put plainly: BLI, antibody on AHC sensor. As for the experimental part: as §1
as §2, with “Kₒₙ” for “Kₒₙ,”

The target of assay [8] is T7, recombinant human EGFR protein (human, UniProt P00533 25-645).
T7 construct: Bought
The experiment in a line: BLI, antibody on AHC sensor. As for the experimental part: as §1
as §2, with “Kₒₙ” for “Kₒₙ,”

T5 sequence (P08581 25-932 limits assumed): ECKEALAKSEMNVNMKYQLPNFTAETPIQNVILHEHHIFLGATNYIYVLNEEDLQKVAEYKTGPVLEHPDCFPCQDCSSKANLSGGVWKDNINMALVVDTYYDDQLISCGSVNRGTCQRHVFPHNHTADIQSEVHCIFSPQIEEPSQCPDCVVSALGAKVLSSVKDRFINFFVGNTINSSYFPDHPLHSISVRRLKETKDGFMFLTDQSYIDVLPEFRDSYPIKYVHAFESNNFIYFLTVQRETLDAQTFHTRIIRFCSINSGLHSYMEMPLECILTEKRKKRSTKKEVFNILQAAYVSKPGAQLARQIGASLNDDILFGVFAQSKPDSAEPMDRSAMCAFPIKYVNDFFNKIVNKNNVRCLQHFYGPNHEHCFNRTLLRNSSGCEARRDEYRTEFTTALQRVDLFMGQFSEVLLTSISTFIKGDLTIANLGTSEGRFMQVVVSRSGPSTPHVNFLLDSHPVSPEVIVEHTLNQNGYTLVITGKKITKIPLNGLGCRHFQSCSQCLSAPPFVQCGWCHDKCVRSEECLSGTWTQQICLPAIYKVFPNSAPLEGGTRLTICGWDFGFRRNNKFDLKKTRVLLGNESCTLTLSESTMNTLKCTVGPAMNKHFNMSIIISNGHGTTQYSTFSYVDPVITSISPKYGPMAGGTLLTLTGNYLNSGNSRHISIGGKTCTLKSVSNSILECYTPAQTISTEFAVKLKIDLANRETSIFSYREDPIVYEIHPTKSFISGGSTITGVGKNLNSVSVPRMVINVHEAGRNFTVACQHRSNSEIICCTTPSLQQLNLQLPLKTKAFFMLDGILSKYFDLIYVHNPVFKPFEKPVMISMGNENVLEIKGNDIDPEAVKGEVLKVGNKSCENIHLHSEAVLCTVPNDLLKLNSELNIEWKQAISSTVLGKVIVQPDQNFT
T1 sequence (P07766 23-126, stated change not applied, chain 1 of 2): as the sequence (P07766 23-126, stated change not applied, chain 1 of 2) above
T1 sequence (P04234 22-105, stated change not applied, chain 2 of 2): as the sequence (P04234 22-105, stated change not applied, chain 2 of 2) above

B1: EGFR-BsAb bispecific control antibody (TA1-Fab CD3 x EGFR VHH) (bispecific antibody, human IgG4 S228P, kappa, F234A L235A)
heavy: EVKLLESGGGLVQPKGSLKLSCAASGFTFNTYAMNWVRQAPGKGLEWVARIRSKYNNYATYYADSVKDRFTISRDDSQSILYLQMNNLKTEDTAMYYCVRHGNFGNSYVSWFAYWGQGTLVTVSSASTKGPSVFPLAPCSRSTSESTAALGCLVKDYFPEPVTVSWNSGALTSGVHTFPAVLQSSGLYSLSSVVTVPSSSLGTKTYTCNVDHKPSNTKVDKRVESKYGPPCPPCPAPEAAGGPSVFLFPPKPKDTLMISRTPEVTCVVVDVSQEDPEVQFNWYVDGVEVHNAKTKPREEQFNSTYRVVSVLTVLHQDWLNGKEYKCKVSNKGLPSSIEKTISKAKGQPREPQVYTLPPCQEEMTKNQVSLWCLVKGFYPSDIAVEWESNGQPENNYKTTPPVLDSDGSFFLYSRLTVDKSRWQEGNVFSCSVMHEALHNHYTQKSLSLSL
chain: QVQLQESGGGSVQAGGSLKLSCAASGRGFSRYAMGWFRQAPGQDREFVATISWTNSTDYADSVKGRFAISRDNAKNTAYLQMNSLKPEDTAVYYCAADKWASSTRSIDYDYWGQGIQVTVSSESKYGPPCPPCPAPEAAGGPSVFLFPPKPKDTLMISRTPEVTCVVVDVSQEDPEVQFNWYVDGVEVHNAKTKPREEQFNSTYRVVSVLTVLHQDWLNGKEYKCKVSNKGLPSSIEKTISKAKGQPREPQVCTLPPSQEEMTKNQVSLSCAVKGFYPSDIAVEWESNGQPENNYKTTPPVLDSDGSFFLVSRLTVDKSRWQEGNVFSCSVMHEALHNRFTQKSLSLSL
light: QAVVTQESALTTSPGETVTLTCRSSTGAVTTSNYANWVQEKPDHLFTGLIGGTNKRAPGVPARFSGSLIGDKAALTITGAQTEDEAIYFCALWYSNLWVFGGGTKVEIKRTVAAPSVFIFPPSDEQLKSGTASVVCLLNNFYPREAKVQWKVDNALQSGNSQESVTEQDSKDSTYSLSSTLTLSKADYEKHKVYACEVTHQGLSSPVTKSFNRGEC
notes: also called anti-EGFR-BsAb
In general, Kd refers to the constant that tells how readily two partners part at equilibrium. As a reminder, the koff is the rate constant with which the complex falls apart. Usually kon stands for a measure of how fast the partners come together. For the molecule B1, in assay [1], the “killing EC50, NCI-H157 cells (EGFR-positive)” value worked out at 0.02 nM; the “killing EC50, NCI-H1299 cells (EGFR-positive)” value was found to be 0.0318 nM; the “killing EC50, NCI-H1395 cells (EGFR-positive)” value is 0.0108 nM. Moreover, in assay [2], the Kd amounted to 9.03 nM, the koff was 0.000748 s⁻¹ and the kon amounted to 82900 M⁻¹ s⁻¹. Besides, in assay [3], the Kd came to 9.85 nM, the koff was 0.00305 s⁻¹ and the kon stood at 309000 M⁻¹ s⁻¹.

B2: CEA-CAM6-BsAb bispecific control antibody (TA1-Fab anti-CD3 x CEA-CAM6 VHH) (bispecific antibody, human IgG4 S228P, kappa, F234A L235A)
heavy: EVKLLESGGGLVQPKGSLKLSCAASGFTFNTYAMNWVRQAPGKGLEWVARIRSKYNNYATYYADSVKDRFTISRDDSQSILYLQMNNLKTEDTAMYYCVRHGNFGNSYVSWFAYWGQGTLVTVSSASTKGPSVFPLAPCSRSTSESTAALGCLVKDYFPEPVTVSWNSGALTSGVHTFPAVLQSSGLYSLSSVVTVPSSSLGTKTYTCNVDHKPSNTKVDKRVESKYGPPCPPCPAPEAAGGPSVFLFPPKPKDTLMISRTPEVTCVVVDVSQEDPEVQFNWYVDGVEVHNAKTKPREEQFNSTYRVVSVLTVLHQDWLNGKEYKCKVSNKGLPSSIEKTISKAKGQPREPQVYTLPPCQEEMTKNQVSLWCLVKGFYPSDIAVEWESNGQPENNYKTTPPVLDSDGSFFLYSRLTVDKSRWQEGNVFSCSVMHEALHNHYTQKSLSLSL
chain: QVKLEESGGGLVQAGGSLRLSCRTSGRTNSVYTMGWFRQAPGKEREFVAQIMWGAGTNTHYADSVKGRFTISRDSAESTVYLQMNSLKPEDTAVYYCAANRGIPIAGRQYDYWGQGTQVTVSSESKYGPPCPPCPAPEAAGGPSVFLFPPKPKDTLMISRTPEVTCVVVDVSQEDPEVQFNWYVDGVEVHNAKTKPREEQFNSTYRVVSVLTVLHQDWLNGKEYKCKVSNKGLPSSIEKTISKAKGQPREPQVCTLPPSQEEMTKNQVSLSCAVKGFYPSDIAVEWESNGQPENNYKTTPPVLDSDGSFFLVSRLTVDKSRWQEGNVFSCSVMHEALHNRFTQKSLSLSL
light: QAVVTQESALTTSPGETVTLTCRSSTGAVTTSNYANWVQEKPDHLFTGLIGGTNKRAPGVPARFSGSLIGDKAALTITGAQTEDEAIYFCALWYSNLWVFGGGTKVEIKRTVAAPSVFIFPPSDEQLKSGTASVVCLLNNFYPREAKVQWKVDNALQSGNSQESVTEQDSKDSTYSLSSTLTLSKADYEKHKVYACEVTHQGLSSPVTKSFNRGEC
notes: IgG4
B2: the “absorbance ratio to PBS blank” value was 0.45 in assay [4] and 0.87 in assay [5].

B3: c-Met-BsAb bispecific control antibody (TA1F anti-CD3 Fab x c-Met VHH) (bispecific antibody, IgG4, not shown: a dimerising Fc or GST)
heavy: EVKLLESGGGLVQPKGSLKLSCAASGFTFNTYAMNWVRQAPGKGLEWVARIRSKYNNYATYYADSVKDRFTISRDDSQSILYLQMNNLKTEDTAMYYCVRHGNFGNSYVSWFAYWGQGTLVTVSSASTKGPSVFPLAPCSRSTSESTAALGCLVKDYFPEPVTVSWNSGALTSGVHTFPAVLQSSGLYSLSSVVTVPSSSLGTKTYTCNVDHKPSNTKVDKRV
chain: QVKLEESGGDLVQPGGSLRLSCVGSGSIFSYTAMGWYRQAPGKQRELVATIHSGGNINYADSVKGRFTISRDNTENTVYLQMNSLKPEDTAVYYCWSLLVGPETRYKDFNFWGRGTQVTVSS
light: QAVVTQESALTTSPGETVTLTCRSSTGAVTTSNYANWVQEKPDHLFTGLIGGTNKRAPGVPARFSGSLIGDKAALTITGAQTEDEAIYFCALWYSNLWVFGGGTKVEIKRTVAAPSVFIFPPSDEQLKSGTASVVCLLNNFYPREAKVQWKVDNALQSGNSQESVTEQDSKDSTYSLSSTLTLSKADYEKHKVYACEVTHQGLSSPVTKSFNRGEC
notes: the text gives VH-CH1-Hinge-Fc (IgG4) and VL-CL (kappa)
On to B3, for which, in assay [6], the Kd amounted to 0.523 nM, the koff was 0.000367 s⁻¹ and the association rate constant (kon) was 702000 M⁻¹ s⁻¹.

B4: EGFR-BsAb bispecific control antibody (TA1-Fab anti-CD3 x EGFR VHH) (bispecific antibody, human IgG4 S228P, kappa, F234A L235A)
heavy: EVKLLESGGGLVQPKGSLKLSCAASGFTFNTYAMNWVRQAPGKGLEWVARIRSKYNNYATYYADSVKDRFTISRDDSQSILYLQMNNLKTEDTAMYYCVRHGNFGNSYVSWFAYWGQGTLVTVSSASTKGPSVFPLAPCSRSTSESTAALGCLVKDYFPEPVTVSWNSGALTSGVHTFPAVLQSSGLYSLSSVVTVPSSSLGTKTYTCNVDHKPSNTKVDKRVESKYGPPCPPCPAPEAAGGPSVFLFPPKPKDTLMISRTPEVTCVVVDVSQEDPEVQFNWYVDGVEVHNAKTKPREEQFNSTYRVVSVLTVLHQDWLNGKEYKCKVSNKGLPSSIEKTISKAKGQPREPQVYTLPPCQEEMTKNQVSLWCLVKGFYPSDIAVEWESNGQPENNYKTTPPVLDSDGSFFLYSRLTVDKSRWQEGNVFSCSVMHEALHNHYTQKSLSLSL
chain: QVQLQESGGGSVQAGGSLKLSCAASGRGFSRYAMGWFRQAPGQDREFVATISWTNSTDYADSVKGRFAISRDNAKNTAYLQMNSLKPEDTAVYYCAADKWASSTRSIDYDYWGQGIQVTVSSESKYGPPCPPCPAPEAAGGPSVFLFPPKPKDTLMISRTPEVTCVVVDVSQEDPEVQFNWYVDGVEVHNAKTKPREEQFNSTYRVVSVLTVLHQDWLNGKEYKCKVSNKGLPSSIEKTISKAKGQPREPQVCTLPPSQEEMTKNQVSLSCAVKGFYPSDIAVEWESNGQPENNYKTTPPVLDSDGSFFLVSRLTVDKSRWQEGNVFSCSVMHEALHNRFTQKSLSLSL
light: QAVVTQESALTTSPGETVTLTCRSSTGAVTTSNYANWVQEKPDHLFTGLIGGTNKRAPGVPARFSGSLIGDKAALTITGAQTEDEAIYFCALWYSNLWVFGGGTKVEIKRTVAAPSVFIFPPSDEQLKSGTASVVCLLNNFYPREAKVQWKVDNALQSGNSQESVTEQDSKDSTYSLSSTLTLSKADYEKHKVYACEVTHQGLSSPVTKSFNRGEC
notes: IgG4
Take B4: the “absorbance ratio to PBS blank” value in assay [4] was 0.5. For the same molecule, the “absorbance ratio to PBS blank” value in assay [5] was found to be 0.86. In assay [7], the Kd turned out to be 5.51 nM, the koff was found to be 0.00302 s⁻¹ and the kon amounted to 547000 M⁻¹ s⁻¹. In assay [8], the Kd is 0.645 nM, the koff was 0.000401 s⁻¹ and the kon stood at 622000 M⁻¹ s⁻¹.
